Measured values taken from US6376210B1, “Methods and compositions for assaying analytes” (General Atomics, priority 1999, dated 2002).

Tested on: human SAH hydrolase
Test: SAH hydrolase activity assay, hydrolytic direction (kinetic constants for SAH)
Format: biochemical
Settings: substrate SAH; wild type vs mutant SAH hydrolase
Method: The cell-free extracts from colonies that inducibly overexpressed mutant SAH hydrolase proteins were chromatographed on a monoQ column (HR5/5) equipped with FPLC system. Proteins were eluted with a linear gradient of NaCl from 0 to 1 M in 10 mM sodium phosphate buffer, pH 7.0 over 35 min. The major protein peak that eluted at the same or close retention time as that of the wild type SAH hydrolase was collected. An aliquot collected mutant SAH hydrolase (1-10 μg) was incubated with [^3H]SAH (10 mCi/mmole, 200 μM) and 30 μM of 5, 5′-dithiobis (2-nitrobenzoic acid) (DTNB) at room temperature for 5-30 min.
The reaction solution was filtered through a membrane of molecular weight cut-off at 30,000 by centrifugation. The filtrate was measured at 412 nm for Hcy formation (enzyme activity) and the [^3H] radioactivity on the membrane was measured by scintillation counting after membrane washing with 1 ml of 50 mM phosphate buffer, pH 7.0.
The mutant hydrolases that show high radioactivity on the membrane and low O.D. at 412 nm of the filtrate relative to the wild type enzyme were selected as candidates for further characterization including determination of Km or Kd and binding energy (ΔG).
The assay of SAH hydrolase activity in the hydrolytic direction was performed as described in Yuan et al., J. Biol Chem., 271:28008-28016, 1996). The assay measures the hydrolysis of SAH into Ado and Hcy. The reaction product Hcy was derivatized by thiol specific reagent DTNB for colometric determination at 412 nm. The assay for SAH hydrolase in the synthetic direction was measured by the formation of SAH from substrate Ado and Hcy using HPLC (see, Yuan et al., J. Biol. Chem., 268:17030-17037 (1993). One unit of the enzyme activity was defined as the amount of enzyme that can hydrolyze or synthesize 1 μmole of SAH/min/mg.

B1: wild type: wild type human placental SAH hydrolase (SEQ ID No. 1), recombinant from E. coli (protein, listed as Homo sapiens)
chain: MSDKLPYKVADIGLAAWGRKALDIAENEMPGLMRMRERYSASKPLKGARIAGCLHMTVETAVLIETLVTLGAEVQWSSCNIFSTQNHAAAAIAKAGIPVYAWKGETDEEYLWCIEQTLYFKDGPLNMILDDGGDLTNLIHTKYPQLLPGIRGISEETTTGVHNLYKMMANGILKVPAINVNDSVTKSKFDNLYGCRESLIDGIKRATDVMIAGKVAVVAGYGDVGKGCAQALRGFGARVIITEIDPINALQAAMEGYEVTTMDEACQEGNIFVTTTGCIDIILGRHFEQMKDDAIVCNIGHFDVEIDVKWLNENAVEKVNIKPQVDRYRLKNGRRIILLAEGRLVNLGCAMGHPSFVMSNSFTNQVMAQIELWTHPDKYPVGVHFLPKKLDEAVAEAHLGKLNVKLTKLTEKQAQYLGMSCDGPFKPDHYRY
modifications: Human S-adenosylhomocysteine hydrolase protein sequence
With B1 the “Kcat (SAH)” value was 3.8 S^−1 and the Km was 7.9 µM.

B2: F302S: mutant human SAH hydrolase, Phe302 to Ser; substrate trapping enzyme (protein, UniProt P23526 2-432, looked up, variant F302S)
Adenosylhomocysteinase: SDKLPYKVADIGLAAWGRKALDIAENEMPGLMRMRERYSASKPLKGARIAGCLHMTVETAVLIETLVTLGAEVQWSSCNIFSTQDHAAAAIAKAGIPVYAWKGETDEEYLWCIEQTLYFKDGPLNMILDDGGDLTNLIHTKYPQLLPGIRGISEETTTGVHNLYKMMANGILKVPAINVNDSVTKSKFDNLYGCRESLIDGIKRATDVMIAGKVAVVAGYGDVGKGCAQALRGFGARVIITEIDPINALQAAMEGYEVTTMDEACQEGNIFVTTTGCIDIILGRHFEQMKDDAIVCNIGHSDVEIDVKWLNENAVEKVNIKPQVDRYRLKNGRRIILLAEGRLVNLGCAMGHPSFVMSNSFTNQVMAQIELWTHPDKYPVGVHFLPKKLDEAVAEAHLGKLNVKLTKLTEKQAQYLGMSCDGPFKPDHYRY
B2 was tested, and the “Kcat (SAH)” value was 0.1 S^−1 and the Km was 1 µM.
